B1: Cre recombinase monomer with K201G mutation (protein)
chain: MSNLLTVHQNLPALPVDATSDEVRKNLMDMFRDRQAFSEHTWKMLLSVCRSWAAWCKLNNRKWFPAEPEDVRDYLLYLQARGLAVKTIQQHLGQLNMLHRRSGLPRPSDSNAVSLVMRRIRKENVDAGERAKQALAFERTDFDQVRSLMENSDRCQDIRNLAFLGIAYNTLLRIAEIARIRVKDISRTDGGRMLIHIGRTGTLVSTAGVEKALSLGVTKLVERWISVSGVADDPNNYLFCRVRKNGVAAPSATSQLSTRALEGIFEATHRLIYGAKDDSGQRYLAWSGHSARVGAARDMARAGVSIPEIMQAGGWTNVNIVMNYIRNLDSETGAMVRLLEDGD
B2: Cre recombinase monomer with K201H mutation (protein)
chain: MSNLLTVHQNLPALPVDATSDEVRKNLMDMFRDRQAFSEHTWKMLLSVCRSWAAWCKLNNRKWFPAEPEDVRDYLLYLQARGLAVKTIQQHLGQLNMLHRRSGLPRPSDSNAVSLVMRRIRKENVDAGERAKQALAFERTDFDQVRSLMENSDRCQDIRNLAFLGIAYNTLLRIAEIARIRVKDISRTDGGRMLIHIGRTHTLVSTAGVEKALSLGVTKLVERWISVSGVADDPNNYLFCRVRKNGVAAPSATSQLSTRALEGIFEATHRLIYGAKDDSGQRYLAWSGHSARVGAARDMARAGVSIPEIMQAGGWTNVNIVMNYIRNLDSETGAMVRLLEDGD
B3: Cre recombinase monomer with K201I mutation (protein)
chain: MSNLLTVHQNLPALPVDATSDEVRKNLMDMFRDRQAFSEHTWKMLLSVCRSWAAWCKLNNRKWFPAEPEDVRDYLLYLQARGLAVKTIQQHLGQLNMLHRRSGLPRPSDSNAVSLVMRRIRKENVDAGERAKQALAFERTDFDQVRSLMENSDRCQDIRNLAFLGIAYNTLLRIAEIARIRVKDISRTDGGRMLIHIGRTITLVSTAGVEKALSLGVTKLVERWISVSGVADDPNNYLFCRVRKNGVAAPSATSQLSTRALEGIFEATHRLIYGAKDDSGQRYLAWSGHSARVGAARDMARAGVSIPEIMQAGGWTNVNIVMNYIRNLDSETGAMVRLLEDGD
B4: Cre recombinase monomer with K201R mutation (protein)
chain: MSNLLTVHQNLPALPVDATSDEVRKNLMDMFRDRQAFSEHTWKMLLSVCRSWAAWCKLNNRKWFPAEPEDVRDYLLYLQARGLAVKTIQQHLGQLNMLHRRSGLPRPSDSNAVSLVMRRIRKENVDAGERAKQALAFERTDFDQVRSLMENSDRCQDIRNLAFLGIAYNTLLRIAEIARIRVKDISRTDGGRMLIHIGRTRTLVSTAGVEKALSLGVTKLVERWISVSGVADDPNNYLFCRVRKNGVAAPSATSQLSTRALEGIFEATHRLIYGAKDDSGQRYLAWSGHSARVGAARDMARAGVSIPEIMQAGGWTNVNIVMNYIRNLDSETGAMVRLLEDGD
B5: Cre recombinase monomer with K201S mutation (protein)
chain: MSNLLTVHQNLPALPVDATSDEVRKNLMDMFRDRQAFSEHTWKMLLSVCRSWAAWCKLNNRKWFPAEPEDVRDYLLYLQARGLAVKTIQQHLGQLNMLHRRSGLPRPSDSNAVSLVMRRIRKENVDAGERAKQALAFERTDFDQVRSLMENSDRCQDIRNLAFLGIAYNTLLRIAEIARIRVKDISRTDGGRMLIHIGRTSTLVSTAGVEKALSLGVTKLVERWISVSGVADDPNNYLFCRVRKNGVAAPSATSQLSTRALEGIFEATHRLIYGAKDDSGQRYLAWSGHSARVGAARDMARAGVSIPEIMQAGGWTNVNIVMNYIRNLDSETGAMVRLLEDGD
B6: Cre recombinase monomer with K201T mutation (protein)
chain: MSNLLTVHQNLPALPVDATSDEVRKNLMDMFRDRQAFSEHTWKMLLSVCRSWAAWCKLNNRKWFPAEPEDVRDYLLYLQARGLAVKTIQQHLGQLNMLHRRSGLPRPSDSNAVSLVMRRIRKENVDAGERAKQALAFERTDFDQVRSLMENSDRCQDIRNLAFLGIAYNTLLRIAEIARIRVKDISRTDGGRMLIHIGRTTTLVSTAGVEKALSLGVTKLVERWISVSGVADDPNNYLFCRVRKNGVAAPSATSQLSTRALEGIFEATHRLIYGAKDDSGQRYLAWSGHSARVGAARDMARAGVSIPEIMQAGGWTNVNIVMNYIRNLDSETGAMVRLLEDGD

Target: T1, Cre recombinase monomer with Q311R mutation
T1 chain: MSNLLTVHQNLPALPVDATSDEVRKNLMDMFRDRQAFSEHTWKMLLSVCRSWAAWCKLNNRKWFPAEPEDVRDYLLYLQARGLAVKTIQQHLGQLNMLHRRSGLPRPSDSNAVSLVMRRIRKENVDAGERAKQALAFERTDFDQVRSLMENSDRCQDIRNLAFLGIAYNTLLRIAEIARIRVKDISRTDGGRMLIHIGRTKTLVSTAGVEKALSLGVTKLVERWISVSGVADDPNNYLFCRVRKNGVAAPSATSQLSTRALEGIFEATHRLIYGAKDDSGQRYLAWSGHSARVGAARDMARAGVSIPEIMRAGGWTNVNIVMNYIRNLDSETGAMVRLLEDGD

Protein	Median dimer activity (recombination on loxP)
B1	90%
B2	94%
B3	86%
B4	98%
B5	95%
B6	94%
